Data as given in the DeepSol protein solubility set.

Assay: soluble on expression in E. coli; label from the status in PepcDB or PDB records

Sequence	soluble on expression in E. coli
MTVGMSGFTRAGEAKAVPLALAERAKTNPMKITLMTGASLGNDLDKTMVEAGMLARRMPFQSDPALRKAINDGRVMFIDQHLSETVEQLRGGQIHGVDIAIVEAVAITAEGGIVPTTSVGNSASFAILADKVIVEINLSQPEVLEGLHDIFIPAKRPTRMPIPVVATDSRVGLPFIPVPPEKIAAIVLSDKSDSFSTVLPPDDETKAIAGHLTEFLLNEVRHGRMTHELQPLQAGIGTIANAVMHGFIDTPFHDLKMYSEVLQDSTFELFDAGKLTFASGSSITLSSAMNEQVMPRLSEYKSRLILRPQEVSNHPEVIRRLGIIGINTALEFDIYGNVNSTHVGGTHMMNGIGGSGDFARNAYMSIFVTKSIAKGGAISSVVPMVSHVDHTEHDVDILVTETGLADLRGLAPRERAAVIIANCVHPSYRDALTDYYQRAAARGGHTPHLIEEALSWHNALRERGTMLPQRLEHHHHHH	not soluble
MANSSRRTTAFSEAEKAAVYRALLTRRDIRHFRPDPIPEEVLERLYQAFHAAPSVGLTQPWAIVEIRERATKERVFALHQEARARERALFQGKAQRVYDRLRLEGLLEAPLHLAVFQRPVARSLGHHTMPETLAYSVVLAVGNLWTAARAEGIGVGWVSILEPEAVARLLGAPPDYRLLAYLCLGYPRAWPDEPLLERAGWRQREPLLRYRERFP	soluble
MSLSNFKSISLTYRKAPLEIRERVALNEAECKSLMLRIKDFTDTAELLILSTCNRTEIYYTSNEDYSNDIIKLLGVEKNITGLIQQKEYFEIYNEQADAVLHLFEVGIGLDSQVVGDMQIVNQVKYAYQWSADLNLAGPFLHRLMHTIFFTNKRVVQETAFRDGAASVSYATVELSEELLSATPNANILIVGLGEIGADVCRNFKANTSFKNITLTNRSPLKSEALAAECGIEHVPFETLWEAVAKADLVISSVAKEEPLFTKEEIQKLSILSHKYFIDLSVPRSVDARAEELPGIIVYDIDHIQNRSNEALENRLNAIPHVRKIILDSIVEFNEWSKEMEVSPTINKLKNALEQIRKEELSRFVKQLSDEEAKKVDEITKSIMQKIIKLPVLQLKAACKRGEAETLIDVLNDLFNLDKQPEQIREGHHHHHH	soluble
MGSDKIHHHHHHMQRFKKWFLSIIKNFKQHEKIKIDLNNTKIDLNNTKIDLNNTKIDLNNTKIDLNNTKIDLNNTKIDLNNTKIDLNNTKIDLNNTKIELSQLKKEHYKVLDFHLRKITPQAFLEIVEIHLAESCNLNCFGCNHFSQIAEKEFPDIEIFKKDMQRLSEISKGIVGTFRLMGGEPLLNPNCIQFFDITRYFFPKSAIWLVTNGILLDKQNEDFWNSCQRNKMQIRPTKYPIKINWDLIKDKCDQYDIPLIFFNNGELEKTSWKFSLDPSGNCDNYHSFTNCSMANHCVQFKDGKLFTCTFPAHVQHFNKKYGNHFEVCEFDFIDIYKAKDYQEILFFLSKPIPFCRYCKVSQWAEIGKWRSSNKTKHEYLI	not soluble
MASLIQVRDLLALRGRMEATQISHTLHAPQPMIDAMLNQLEIMGKAVRIPEEPDGCLSGSCKSCPEGKACLREWWALR	not soluble
GSHSMRYFYTAMSRPGRGEPRFIAVGYVDDTQFVRFDSDAASPRTEPRPPWIEQEGPEYWDRNTQIFKTNTQTYRENLRIALRYYNQSEAGSHIIQRMYGCDLGPDGRLLRGHDQSAYDGKDYIALNEDLSSWTAADTAAQITQRKWEAARVAEQLRAYLEGLCVEWLRRYLENGKETLQRADPPKTHVTHHPVSDHEATLRCWALGFYPAEITLTWQRDGEDQTQDTELVETRPAGDRTFQKWAAVVVPSGEEQRYTCHVQHEGLPKPLTLRWEPHH	soluble
MILQELPDLEELFLCLNDYETVSCPSICCHSLKLLHITDNNLQDWTEIRKLGVMFPSLDTLVLANNHLNAIEEPDDSLARLFPNLRSISLHKSGLQSWEDIDKLNSFPKLEEVRLLGIPLLQPYTTEERRKLVIARLPSVSKLNGSVVTDGEREDSERFFIRYYVDVPQEEVPFRYHELITKYGKLEPLAEVDLRPQSSAKVEVHFNDQVEEMSIRLDQTVAELKKQLKTLVQLPTSNMLLYYFDHEAPFGPEEMKYSSRALHSFGIRDGDKIYVESKTK	soluble
MVDNKVTQSNKLIESSHTLTLNEKRLVLCAASLIDSRKPLPKDGYLTIRADTFAEVFGIDVKHAYAALDDAATKLFNRDIRRYVKGKVVERMRWVFHVKYREGQGCVELGFSPTIIPHLTMLHKEFTSYQLK	soluble
PLTEAQKNKLRHLSVVTLAAKVKCIPYAVLLEALALRNVRQLEDLVIEAVYADVLRGSLDQRNQRLEVDYSIGRDIQRQDLSAIARTLQEW	not soluble
MGSDKIHHHHHHMNLQQLAVFREVMETGSVSAAARNLGRTQPAVSASLKALEVNLGIALFEREGRRLVPVPEAHYLLSEAAEILARVNTTEMNLVGMRNRTRGSLSVVGMPGPSVYLLPDFVSRFGSKADDLKISLSTRSSPQILNLIAAQAFDVGFCDLGFCDMSAEDLNSSLYHTKTIMSDCLCALPAQHPLAGRAVIDARQLSGERMGVLAGTHSTNRDTRAAFEQAGAVFNPRVEAQYFIPLLRFVEAGQICTVLDPLSAETYKRMNGGEVGIWFARFLPSVRFGYSIVTPKQRPLSLLAQDFVDGWSDHVREIIADHS	not soluble
MGSDKIHHHHHHMDNKTQEKADFTLANAYGGVEMVRADYKGQAFSKHVHEGYTIGVIEKGAQRFYRSGEIHTADTNSIILVNADDVHTGESASSGGWQYRAMYPLPEHFENISNDLYDKGKFAPYFGSSVINDPLLTDQLRLLFNQVDNNASQLLTETIMYSLMLRLTLRHSSLRHVPKDISGSKAKLLRVKEYLDSYPAEDISLKQLAIIAGLSQYHFIRQFKKMFDLAPHSYQIQARLKKAKTLLKAGVKPVMVASDCGFHDQSHFNRHFKKALGTSPSKFQKQAVLYKN	not soluble
MSKELTAKKRAALNRLKTVRGHLDGIVRMLESDAYCVDVMKQISAVQSSLERANRVMLHNHLETCFSTAVLDGHGQAAIEELIDAVKFTPALTGPHARLGGAAVGESATEEPMPDASNM	soluble
MEENLERTESLAREADDCHPIFRIAPSTVEFNKLRKRLLRHIRQAFDDFSMLSSGKKWLVALSGGKDSYGLLALLLDLKWRGLLPVEILACNLDQGQPGFPKHILPDFLNSYQIPHRIEYQDTYSIVTDKLVHTQTYCSLCSRLRRGNLYRIAREEGCSALVLGHHRDDVLETFFMNLFHGGRLAAMPGKLINDEGDLFVLRPLVYAAEEDMEKFSQAMQFPIIPCNLCGSQDGLQRNAMKEMLKDIERKMPGRKDTMIRALTNVRPSHLLDKKFFDFKNLF	not soluble
MGSDKIHHHHHHMLKSLLLTPINLAVKPFPAAKARLDAAKIVLKRWVKLRHFISDLLHAKSFMFWSAQDTSYAKLSSELIFQYHKLEKGLCMAGPRRFFGRDPVIATCRLVKRWSGAGLPSNDPVFLGAIETLRAYRDRLAVTPPPPEHATQIWSLLNECLSLAPPTPSLTTPRPYQPSAGTAATFDLLCAQRRSVRAYTTDVVPISLIHEAIATAQLSPSACNRQPWRLHIYRDPQRTKHLLELQNGNAGFGHQLTTLLVVCADSRTFFDATERNEPYVDAGLFVMSLLLALQSRGLASCCLNWCVSPDTDQKGHDRGDIPSNEKIIMYLAVGYADAQAMVPRSPRRNLETVVTLHEQ	not soluble
MENRRIVIITGANSGIGKEAAQRFANEGDHVIMACRNIAFSRKVQHDIIAASGNDHVDLLELDVSSFASIRTFCTTFNSQYKRLDILIHNAAYFNHGEPYRLSPDGIELTFATNVFGPYLLTSLLRDRLKQSEDPRILHAGSNIIKHFFDPKQTFDLDLLQGNHGTKSYSVYKMYCQSKMALMLLTFQMAEVFADDGIKVNALQINGAKMSKRTIQKVKPWWRPIAWGQNLFFPPPSYMADKYFTICTSDKYKQTTGKLFNDKLEIMEPSPTHYPGFFKQMKLLLGSNVYPAYENTNIREKLWALCKELVGELEHHHHHH	not soluble
MNDQELRAYLSQAKTIAVLGAHKDPSRPAHYVPRYLREQGYRVLPVNPRFQGEELFGEEAVASLLDLKEPVDILDVFRPPSALMDHLPEVLALRPGLVWLQSGIRHPEFEKALKEAGIPVVADRCLMVEHKRLFRGPLPL	soluble
MSYYHHHHHHDYDIPTENLYFQGAMGRADPRNQRVLLDEYSRQRGQITAGGQLLAYSVATDGRFRFLRVYPNPEVYAPVTGFYSLRYSSTALERAEDPILNGSDRRLFGRRLADFFTGRDPRGGNVDTTINPRIQQAGWDAMQQGCYGPCKGAVVALEPSTGKILALVSSPSYDPNLLASHNPEVQAQAWQRLGDNPASPLTNRAISETYPPGSTFKVITTAAALAAGATETEQLTAAPTIPLPGSTAQLENYGGAPCGDEPTVSLREAFVKSCNTAFVQLGIRTGADALRSMARAFGLDSPPRPTPLQVAESTVGPIPDSAALGMTSIGQKDVALTPLANAEIAATIANGGITMRPYLVGSLKGPDLANISTTVGYQQRRAVSPQVAAKLTELMVGAEKVAQQKGAIPGVQIASKTGTAEHGTDPRHTPPHAWYIAFAPAQAPKVAVAVLVENGADRLSATGGALAAPIGRAVIEAALQGEP	soluble
MALNVNRAVADPFYRYKMPKLSAKVEGKGNGIKTVISNMSEIAKALERPPMYPTKYFGCELGAQTNFDAKNERYIVNGEHDANKLQDILDGFIKKFVLCKSCENPETQLFVRKNNIKSKCKACGCSFDIDLKHKLSTFIMKNPPKIDVDFSKAEQKNGKKTSGADAAAAVAADIIHNSDKGSSNDDDDDDWEPEPVEPNGMLSAGMGKLVLDKDLEKSEEQRLDMLHTFFLKAKEEDRISDAKGQTALRDEAERLELKQKASLLLANVFLDEKVITDKQISKHRNLLLRFTLNDKKAQRYLLGGVEQVIHKHEAELLSKSAHIIKSLYDEDVCEEDSLISWGEKPSSKYVSKSFAKKIIENSQPVLNWLKEAEEETEEESDDEIAFGGDVKESEFLRQQKEKAAREAQQKSAKATNGNAAAASGANDEEDLDIDDI	soluble
MISTPPVARNIMRCMSDQLKLDQQICFQLYTGSRLMQRMYRVYFDQWGITYSQYLVLLLLWEKDRQTISELSDPLDLDSGTLSPLLRRMEANGFITREHEQSDYRKVVVCLTTRGRRLKTKAKKMNDELNDMLGFDDADLAAVTRVLEKINPSAAI	not soluble
MANMKENEKVIMEKGIHTDFKENMTYGEYLQLDSLLSSQKRLSDHHDEMLFIVIHQASELWMKLILHELNAAIEFIKQDKLQPAFKMLARVSKIQSQIIQSWDILATLTPSEYIEFRDSLGQASGFQSYQYRMIEYALGYKTPHALKIYEKDPELHARLHKALHAPSLYDVAIQALVKEGFPIHKDVLNRDITQPYEEDATVEAAWLEVYADVKKYWNLYQLAEKLIDIEDWLQQWRFRHMKTVERIIGHKMGTGGSSGVSYLKRVLDQQFFPELWNVRTKLMAGDPNSLEHHHHHH	soluble
MDRHTTEGWRRWAARLGAAAMALLLAACAAPRQQAASVDELPSWNDGPSRTAIVEFVRAVTRSGGPDFVAADERIAVFDNDGTLWSEQPMYFQMLFALDRVKSMAPRHPDWARRQPFKAALQDDHAALAKGGDVALMKIVGATHTDMSTDTFTRSVRYWASTARHPRFDRLYTELTFAPMRELLDYLRAHGFKTYIVSGGETEFMRSWTQQAYGIPPEQVIGSSFVTTYGVRDGEPTLWRHGKLEFNDDGPGKPVAIQRYIGRRPILAFGNSDGDLQMLQWTAAGDGKRFAGLVHHTDAQREWAYDRDSRIGRLDRALDEARRQDWTVVDMKTEWKRVYAFEQP	not soluble
AHHHHHHGSVRDMEFGNLKPGVENSVCLSAEDLLNTVLSVINSTKARGAYVKIFGKDMEDNYLLEMLVDGSRILAIECSYVQAKKKVVGEEAIKKLAELVELPLIVSVYPLDDNQFRLILANNLEVYSQTPAVPLSSVFKKGATRTIESAIEEAKEEKEEEIQKIMKKTEEIVTEEKKKKEEKKRSSNRNTKRKQN	soluble
